Experiments:
[1] = biological target: T1, Human T cell receptor on human primary T cells (human, UniProt P01848 1-140; P01850 1-176); assay: cell-based or functional assay
T1 TCR alpha (looked up): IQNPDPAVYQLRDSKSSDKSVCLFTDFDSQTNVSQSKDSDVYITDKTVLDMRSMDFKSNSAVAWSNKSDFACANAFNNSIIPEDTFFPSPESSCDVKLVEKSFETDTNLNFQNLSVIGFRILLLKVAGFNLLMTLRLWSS
T1 TCR beta (looked up): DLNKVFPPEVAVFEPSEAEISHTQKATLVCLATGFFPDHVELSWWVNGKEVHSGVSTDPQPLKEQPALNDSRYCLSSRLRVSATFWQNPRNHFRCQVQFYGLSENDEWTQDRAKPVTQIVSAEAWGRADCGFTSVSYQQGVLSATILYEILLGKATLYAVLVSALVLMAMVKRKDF

[2] = biological target: Cynomolgus T cell receptor on cynomolgus primary T cells (cynomolgus monkey); assay: cell-based or functional assay
[3] = biological target: T2, Cynomolgus TCR(AEA41865/AEA41866)-zipper protein (cynomolgus monkey); assay: SPR, ProteOn XPR36, 25 C, immobilised cyTCR-zipper
T2 construct: also called cyTCR-zipper protein; cynoTCR zipper
T2 TCR alpha: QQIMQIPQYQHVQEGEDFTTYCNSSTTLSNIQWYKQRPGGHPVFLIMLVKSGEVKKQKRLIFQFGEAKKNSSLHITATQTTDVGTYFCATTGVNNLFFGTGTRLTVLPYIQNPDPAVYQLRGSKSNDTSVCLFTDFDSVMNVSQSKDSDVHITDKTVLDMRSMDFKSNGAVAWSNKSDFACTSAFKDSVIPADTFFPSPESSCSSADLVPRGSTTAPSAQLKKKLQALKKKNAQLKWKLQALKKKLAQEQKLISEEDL
T2 TCR beta: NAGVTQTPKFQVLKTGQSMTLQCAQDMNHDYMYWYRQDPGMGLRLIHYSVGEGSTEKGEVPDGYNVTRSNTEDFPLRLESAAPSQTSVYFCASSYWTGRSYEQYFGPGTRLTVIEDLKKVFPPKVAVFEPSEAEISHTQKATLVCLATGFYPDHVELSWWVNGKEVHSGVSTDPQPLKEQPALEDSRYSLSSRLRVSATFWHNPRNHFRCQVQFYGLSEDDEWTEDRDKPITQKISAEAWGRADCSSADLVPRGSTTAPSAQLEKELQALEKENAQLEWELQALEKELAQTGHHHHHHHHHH

human CD33 on cells [4] = biological target: human CD33 on cells (human, UniProt P20138 18-364); assay: cell-based or functional assay
Target sequence in this assay (P20138 18-364): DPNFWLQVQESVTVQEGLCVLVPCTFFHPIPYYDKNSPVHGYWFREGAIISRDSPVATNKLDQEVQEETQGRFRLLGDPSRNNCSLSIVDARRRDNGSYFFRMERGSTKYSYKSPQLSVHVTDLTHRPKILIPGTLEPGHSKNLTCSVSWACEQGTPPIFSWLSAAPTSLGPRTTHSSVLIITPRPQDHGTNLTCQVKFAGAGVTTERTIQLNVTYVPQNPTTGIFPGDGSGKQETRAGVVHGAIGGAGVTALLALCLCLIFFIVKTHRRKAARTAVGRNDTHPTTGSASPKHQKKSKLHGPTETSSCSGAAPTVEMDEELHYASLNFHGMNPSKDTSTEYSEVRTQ

human CD123 on cells [5] = biological target: human CD123 on cells (human, UniProt P26951 19-378); assay: cell-based or functional assay
cynomolgus serum albumin [6] = biological target: T3, cynomolgus serum albumin (cynomolgus monkey, UniProt A2V9Z4 25-608); assay: SPR (ProteOn XPR36, 37°C), albumin immobilised
T3 construct: also called CSA
T3 sequence (A2V9Z4 25-608 limits assumed): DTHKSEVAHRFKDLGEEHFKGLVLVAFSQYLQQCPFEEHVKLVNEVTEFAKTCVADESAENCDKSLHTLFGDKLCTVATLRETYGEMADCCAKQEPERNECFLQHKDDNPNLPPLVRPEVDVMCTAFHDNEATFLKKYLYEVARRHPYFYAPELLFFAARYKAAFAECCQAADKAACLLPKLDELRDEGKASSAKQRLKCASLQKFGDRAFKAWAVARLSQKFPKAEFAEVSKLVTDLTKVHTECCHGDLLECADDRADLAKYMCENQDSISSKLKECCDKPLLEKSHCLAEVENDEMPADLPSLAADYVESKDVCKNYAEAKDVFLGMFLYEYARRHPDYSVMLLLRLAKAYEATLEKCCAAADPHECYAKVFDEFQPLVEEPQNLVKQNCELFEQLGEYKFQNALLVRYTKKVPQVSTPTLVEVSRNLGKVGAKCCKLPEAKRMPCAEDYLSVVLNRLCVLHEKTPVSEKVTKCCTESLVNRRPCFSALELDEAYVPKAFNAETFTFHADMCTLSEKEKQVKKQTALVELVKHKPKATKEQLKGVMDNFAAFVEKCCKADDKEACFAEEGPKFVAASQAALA

human CD33 on cells [7] = biological target: T4, human CD33 on cells (human, UniProt P20138 18-364); assay: cell-based or functional assay; remark: listed apart in the source
T4 sequence (P20138 18-364): as the sequence (P20138 18-364) above

human CD123 on cells [8] = biological target: T5, human CD123 on cells (human, UniProt P26951 19-378); assay: cell-based or functional assay; remark: listed apart in the source
cynomolgus CD33 on cells = cynomolgus CD33 on cells (cynomolgus); assay: cell-based or functional assay
[9] = biological target: cynomolgus CD123 on cells (cynomolgus); assay: cell-based or functional assay
[10] = biological target: T6, human TCR on primary human T cells (human, UniProt P01848 1-140; P01850 1-176); assay: cell-based or functional assay
T6 TCR alpha (looked up): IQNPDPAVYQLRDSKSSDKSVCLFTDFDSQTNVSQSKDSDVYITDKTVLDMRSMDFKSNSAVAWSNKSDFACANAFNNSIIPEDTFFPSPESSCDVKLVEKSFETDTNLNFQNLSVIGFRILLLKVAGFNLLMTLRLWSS
T6 TCR beta (looked up): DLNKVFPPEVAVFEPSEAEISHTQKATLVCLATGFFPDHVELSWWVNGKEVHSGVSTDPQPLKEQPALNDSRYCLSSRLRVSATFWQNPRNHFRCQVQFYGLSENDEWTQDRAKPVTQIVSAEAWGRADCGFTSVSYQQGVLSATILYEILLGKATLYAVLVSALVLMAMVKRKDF

[11] = biological target: cynomolgus TCR on primary cynomolgus T cells (cynomolgus); assay: cell-based or functional assay
[12] = biological target: T7, Cynomolgus TCR(AEA41865/AEA41866)-zipper protein (cynomolgus); assay: SPR, ProteOn XPR36, 37 C; TCR-zipper coated on GLC chip
T7 construct: also called cyTCR-zipper; cyTCR(AEA41865)-zipper
T7 TCR alpha: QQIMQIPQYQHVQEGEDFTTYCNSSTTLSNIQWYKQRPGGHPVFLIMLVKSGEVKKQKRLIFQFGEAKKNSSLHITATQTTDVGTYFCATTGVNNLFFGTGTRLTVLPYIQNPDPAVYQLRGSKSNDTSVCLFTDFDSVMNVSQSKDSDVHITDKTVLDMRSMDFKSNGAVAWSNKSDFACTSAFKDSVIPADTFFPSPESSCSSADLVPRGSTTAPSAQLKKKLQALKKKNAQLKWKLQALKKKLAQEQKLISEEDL
T7 TCR beta: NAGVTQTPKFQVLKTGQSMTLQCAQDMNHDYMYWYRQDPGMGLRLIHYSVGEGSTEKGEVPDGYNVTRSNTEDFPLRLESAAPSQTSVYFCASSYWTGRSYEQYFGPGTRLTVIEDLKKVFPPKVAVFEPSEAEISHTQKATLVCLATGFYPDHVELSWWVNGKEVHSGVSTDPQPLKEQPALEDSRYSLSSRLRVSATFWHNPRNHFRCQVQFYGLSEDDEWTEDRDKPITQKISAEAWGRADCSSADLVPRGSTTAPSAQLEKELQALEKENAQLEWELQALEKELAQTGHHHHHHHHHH

huCD33L-Fc = biological target: T8, huCD33L-Fc (human, UniProt P20138 18-259); assay: SPR, ProteOn XPR36, 37 C; CD33L-Fc captured on anti-huIgG (Fc)
T8 construct: also called Human CD33L-Fc; not shown: Fc part, not described (captured by anti-huIgG (Fc))
T8 sequence (P20138 18-259 limits assumed): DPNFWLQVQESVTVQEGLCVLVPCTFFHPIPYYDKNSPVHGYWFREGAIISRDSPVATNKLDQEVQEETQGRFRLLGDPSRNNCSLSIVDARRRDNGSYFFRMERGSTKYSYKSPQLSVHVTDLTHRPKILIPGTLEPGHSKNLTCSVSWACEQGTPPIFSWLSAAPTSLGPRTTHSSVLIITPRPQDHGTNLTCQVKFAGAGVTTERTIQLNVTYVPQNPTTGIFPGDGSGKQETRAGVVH

cyCD33L-Fc = biological target: T9, cyCD33L-Fc (cynomolgus); assay: as above
T9 construct: also called Cynomolgus CD33L-Fc

huCD123-Fc = biological target: T10, huCD123-Fc (human, UniProt P26951 19-305); assay: SPR, ProteOn XPR36, 37 C; CD123-Fc captured on anti-huIgG (Fc)
T10 construct: also called Human CD123-Fc; not shown: Fc part, not described (captured by anti-huIgG (Fc))
T10 sequence: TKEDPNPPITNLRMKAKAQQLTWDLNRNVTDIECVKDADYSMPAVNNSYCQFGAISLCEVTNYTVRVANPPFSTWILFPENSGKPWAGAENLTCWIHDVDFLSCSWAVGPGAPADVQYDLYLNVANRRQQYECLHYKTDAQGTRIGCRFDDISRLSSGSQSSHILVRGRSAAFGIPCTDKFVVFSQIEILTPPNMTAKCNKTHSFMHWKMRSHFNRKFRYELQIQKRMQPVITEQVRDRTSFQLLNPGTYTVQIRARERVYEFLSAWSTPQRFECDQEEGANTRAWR

cyCD123-Fc = biological target: T11, cyCD123-Fc (cynomolgus); assay: as above
T11 construct: also called Cynomolgus CD123-Fc

mouse serum albumin = biological target: T12, mouse serum albumin (mouse, UniProt P07724 25-608); assay: SPR, ProteOn XPR36, 37 C; albumin immobilised by amine coupling
T12 construct: also called MSA
T12 sequence (P07724 25-608 limits assumed): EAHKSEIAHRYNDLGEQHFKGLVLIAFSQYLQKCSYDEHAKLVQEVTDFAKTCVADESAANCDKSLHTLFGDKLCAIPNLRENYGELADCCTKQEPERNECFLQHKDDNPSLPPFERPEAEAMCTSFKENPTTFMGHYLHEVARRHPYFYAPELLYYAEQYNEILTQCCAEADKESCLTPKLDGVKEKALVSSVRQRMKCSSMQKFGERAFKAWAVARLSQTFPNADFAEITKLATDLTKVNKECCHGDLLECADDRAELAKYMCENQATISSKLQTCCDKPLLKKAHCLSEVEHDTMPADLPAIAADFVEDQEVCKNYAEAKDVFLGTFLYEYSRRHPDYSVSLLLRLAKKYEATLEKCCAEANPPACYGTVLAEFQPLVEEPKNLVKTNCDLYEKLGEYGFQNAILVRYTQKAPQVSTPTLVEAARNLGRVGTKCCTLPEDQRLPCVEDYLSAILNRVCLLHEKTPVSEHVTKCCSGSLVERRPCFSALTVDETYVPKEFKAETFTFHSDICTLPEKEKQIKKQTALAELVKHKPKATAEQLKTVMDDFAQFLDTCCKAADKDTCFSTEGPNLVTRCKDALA

cynomolgus serum albumin [13] = biological target: T13, cynomolgus serum albumin (cynomolgus); assay: as above
T13 construct: also called CSA
T13 sequence (A2V9Z4 25-608): as the sequence (A2V9Z4 25-608 limits assumed) above

human serum albumin = biological target: T14, human serum albumin (human, UniProt P02768 25-609); assay: as above
T14 construct: also called HSA

[14] = biological target: T6, human TCR on primary human T cells; assay: flow cytometry competition on primary human T cells; competitor FLAG3His6 tagged monovalent TCR ISVD; global (weighted) IC50, n = 4
[15] = biological target: T15, cynomolgus TCR on primary cynomolgus T cells (cynomolgus); assay: flow cytometry competition on primary cynomolgus T cells; competitor FLAG3His6 tagged monovalent TCR ISVD; global (weighted) IC50, n = 7
T15 construct: whole, on cells; also called cyno TCRαβ

human CD123 on cells [16] = biological target: T5, human CD123 on cells; assay: flow cytometry on CHO Flp-In huCD123 cells; by paragraph 678 with 30 uM HSA, anti-VHH mAb ABH0077 + APC goat anti-mouse; MFI (mean APC) [panel CHO Flp-In huCD123 cells]
human CD33 on cells [17] = biological target: T4, human CD33 on cells; assay: flow cytometry on CHO Flp-In huCD33-long cells; by paragraph 678 with 30 uM HSA, anti-VHH mAb ABH0077 + APC goat anti-mouse; MFI (mean APC) [panel CHO Flp-In huCD33-long cells]

B1: T017000637 (bispecific antibody)
chain: DVQLVESGGGLVQAGGSLRLSCAASGITSKINDMGWYRQTPGNYREWVASITATGTTNYRDSVKGRFTISRDNAKSTVYLQMNSLKPEDTTVYYCNTFPPISNFWGQGTLVTVSSGGGGSGGGGSGGGGSGGGGSGGGGSGGGGSGGGGSEVQLVESGGGVVQPGGSLRLSCVASWDVHQINFYGWYRQAPGKEREKVAHISIGDQTDYADSAKGRFTISRDESKNTVYLQMNSLRPEDTALYYCRALSRIWPYDYWGQGTLVTVSSA
notes: also called A0110056A10(E1D)-35GS-T0170056G05(L11V, G26W, K30Q, L34Y, M77T, K83R, V89L, F91Y, M95L, Y99W)-A
[1]
  % Lysis, T cell mediated MOLM-13 cell killing, human primary T cells, E:T 10:1: 0%
[2]
  % Lysis, T cell mediated MOLM-13 cell killing, cynomolgus primary T cells, E:T 10:1: 17%
[3]
  binding result: no binding (tested: injected between 4.1 nM and 1000 nM)

B2: TCRαβ-CD33-CD123 multispecific ISVD construct (other)
chain: DVQLVESGGGVVQPGGSLRLSCVASGYVHKINFYGWYRQAPGKEREKVAHISIGDQTDYADSAKGRFTISRDESKNTVYLQMNSLRPEDTAAYYCRALSRIWPYDYWGQGTLVTVSSGGGGSGGGSEVQLVESGGGVVQPGGSLRLSCAASGGVFRLNSMGWFRQAPGKQRELVAIITSDGDTNYADSVKGRFTISRDQAKNTVYLQMNSLRPEDTALYYCQITYSTSSYSFPINTWGQGTLVTVSSGGGGSGGGSEVQLVESGGGVVQPGGSLRLSCAASGVIFSGNVMGWYRRQAPGKEREWVAAIAEGGSILYRDSVKGRFTISRDNAKNTVYLQMNSLRPEDTALYYCNSHPPVLPYWGQGTLVTVSSGGGGSGGGGSGGGGSGGGGSEVQLVESGGGVVQPGGSLRLSCAASGFTFRSFGMSWVRQAPGKGPEWVSSISGSGSDTLYADSVKGRFTISRDNSKNTLYLQMNSLRPEDTALYYCTIGGSLSRSSQGTLVTVSSA
notes: also called A025001562; CD123-CD33-TCR multispecific ISVD construct
Human CD33 on cells [4]
  Global IC50, impedance-based (xCELLigence) human T cell mediated killing of CHO hu CD33 cells: 54 pM
Human CD123 on cells [5]
  Global IC50, impedance-based (xCELLigence) human T cell mediated killing of CHO hu CD123 cells: 25 pM
Cynomolgus serum albumin [6]
  binding result: binds

B3: TCRαβ-CD33-CD123 multispecific ISVD construct (SEQ ID NO: 460) (other)
chain: DVQLVESGGGVVQPGGSLRLSCVASGYVHKINFYGWYRQAPGKEREKVAHISIGDQTDYADSAKGRFTISRDESKNTVYLQMNSLRPEDTAAYYCRALSRIWPYDYWGQGTLVTVSSGGGGSGGGSEVQLVESGGGVVQPGGSLRLSCAASGGVFRLNSMGWFRQAPGKQRELVAIITSDGDTNYADSVKGRFTISRDQAKNTVYLQMNSLRPEDTALYYCQITYSTSSYSFPINTWGQGTLVTVSSGGGGSGGGSEVQLVESGGGVVQPGGSLRLSCAASGVIFSGNVMGWYRRQAPGKEREWVAAIAEGGSILYRDSVKGRFTISRDNAKNTVYLQMNSLRPEDTALYYCNSHPPVLPYWGQGTLVTVSSGGGGSGGGGSGGGGSGGGGSEVQLVESGGGVVQPGGSLRLSCAASGFTFRSFGMSWVRQAPGKGPEWVSSISGSGSDTLYADSVKGRFTISRDNSKNTLYLQMNSLRPEDTALYYCTIGGSLSRSSQGTLVTVSSA
notes: also called A025001562; TCR-CD33-CD123
Human CD33 on cells [7]
  Global IC50 (M), impedance based human T cell mediated CHO hu CD33 cell killing, E:T 15:1, 50 uM HSA (n = 4): 1.1e-10 M
Human CD123 on cells [8]
  Global IC50 (M), impedance based human T cell mediated CHO hu CD123 cell killing, E:T 15:1, 50 uM HSA (n = 7): 4.4e-11 M
Cynomolgus CD33 on cells
  IC50 (M), impedance based cynomolgus T cell mediated CHO Flp-In cynoCD33 cell killing, E:T 15:1, 50 uM HSA: 6.2e-12 M
[9]
  IC50 (M), impedance based cynomolgus T cell mediated CHO Flp-In cynoCD123 cell killing, E:T 15:1, 50 uM HSA: 1.4e-12 M
[10]
  Global EC50 (M), flow cytometry human T cell mediated MOLM-13 cell killing, E:T 10:1, 50 uM HSA (n = 13): 1.8e-11 M
[11]
  EC50 (M), cynomolgus T cell mediated MOLM-13 cell killing, E:T 10:1: 1.36e-11 M
[12]
  Kd: 6.7 nM
huCD33L-Fc
  Kd: 7.6 nM
cyCD33L-Fc
  Kd: 6.9 nM
huCD123-Fc
  Kd: 0.59 nM
cyCD123-Fc
  Kd: 2 nM
Mouse serum albumin
  Kd: < 500 nM
Cynomolgus serum albumin [13]
  Kd: 7.9 nM
Human serum albumin
  Kd: 9.7 nM
[14]
  IC50: 218 nM
[15]
  IC50: 729 nM
Human CD123 on cells [16]
  EC50 (read off the curve): ~10 nM
Human CD33 on cells [17]
  EC50 (read off the curve): ~70 nM

Source: patent publication US20240092919A1 (Ablynx, published 2024)
